# Data published in article PMC4259358, “Functional Characterization of Nuclear Localization and Export Signals in Hepatitis C Virus Proteins and Their Role in the Membranous Web” (PLoS ONE, 2014).
# Key:
# Assay in all cases: ELISA; plates coated with synthetic peptide (10 µg/ml, carbonate buffer pH 9.6); increasing concentrations of recombinant NTF, 2 h, room temperature; anti-HIS detection; apparent Kd
# [1] = target: Core NLS 4 synthetic peptide (fused to penetratin) (hepatitis C virus | not stated)
# [2] = target: NS3 NLS 2 synthetic peptide (fused to penetratin) (hepatitis C virus | not stated)
# [3] = target: NS5A NLS synthetic peptide (fused to penetratin) (hepatitis C virus | not stated)
# [4] = target: SV40 NLS synthetic peptide (fused to penetratin) (SV40 | not stated)
substance,measurement,setting,value
"recombinant IPOA5 (importin α5/kap α1), P52294 1-538 (natural protein; other documents disagree on this pair)",Kd,[1],0.518 µM
same,Kd,[2],0.0366 µM
same,Kd,[3],7.63 µM
same,Kd,[4],0.0272 µM
